The text below walks through data of paper PMC10866396 (Molecular cancer therapeutics, 2023).

This assay addresses Avi-tagged-eIF4E (human, UniProt P06730 1-217, biotin (co-transfected bacterial biotin ligase BirA; loaded on streptavidin tips)). The assay can be described thus: BLI.

Avi-tagged-eIF4E, sequence (P06730 whole entry): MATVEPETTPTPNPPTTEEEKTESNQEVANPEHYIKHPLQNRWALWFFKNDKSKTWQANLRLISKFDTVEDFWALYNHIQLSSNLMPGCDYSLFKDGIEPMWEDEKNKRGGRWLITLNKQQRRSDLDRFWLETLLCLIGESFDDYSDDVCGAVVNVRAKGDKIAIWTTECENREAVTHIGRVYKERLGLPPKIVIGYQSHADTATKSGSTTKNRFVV

In the case of YPYAASPA [Pep8 peptide], the Kd (in general, the constant that tells how readily two partners part at equilibrium) was found to be 25 µM.
